Experimental data from publication PMC5199209, “A Cascade of Thermophilic Enzymes As an Approach to the Synthesis of Modified Nucleotides” (Acta Naturae, 2016).

How the values were obtained:
[1] = target: T1, TspRK (ribokinase from Thermus sp. 2.9) (Thermus sp. 2.9, UniProt A0A0B0SD75); test: HPLC of nucleotides (ATP consumption), nonlinear regression with substrate-inhibition equation; format: biochemical; conditions: 1 mM ATP, 5 mM MgCl2, 50 mM KCl, 10 mM KH2PO4, pH 8.0, 75 °C; substrate inhibition by binding of a second molecule; second site
T1 construct: gene rbsK; full-length, six-histidine tag (pET-23d+, NcoI/XhoI), codon-optimized synthetic gene; E. coli host
T1 sequence (A0A0B0SD75 1-301): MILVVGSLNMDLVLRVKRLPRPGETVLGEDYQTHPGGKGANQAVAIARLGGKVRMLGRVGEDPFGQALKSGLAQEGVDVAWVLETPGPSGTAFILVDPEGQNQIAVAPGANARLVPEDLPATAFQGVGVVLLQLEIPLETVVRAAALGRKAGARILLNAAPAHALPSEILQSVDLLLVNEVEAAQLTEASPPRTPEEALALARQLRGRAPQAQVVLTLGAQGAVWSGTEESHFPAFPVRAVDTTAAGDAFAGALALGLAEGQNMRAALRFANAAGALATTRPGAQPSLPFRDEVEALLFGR
Excerpt: HPLC of nucleotides (ATP consumption), nonlinear regression with substrate-inhibition equation on TspRK (ribokinase from Thermus sp. 2.9)

[2] = substrate: Nc1ncnc2c1ncn2[C@@H]1O[C@H](COP(=O)(O)OP(=O)(O)OP(=O)(O)O)[C@@H](O)[C@H]1O; test: HPLC of nucleotides (ATP consumption), nonlinear regression, Michaelis-Menten; format: biochemical, Thermus sp. 2.9; conditions: 1 mM D-ribose, 5 mM MgCl2, 50 mM KCl, 10 mM KH2PO4, pH 8.0, 75 °C
Excerpt: HPLC of nucleotides (ATP consumption), nonlinear regression, Michaelis-Menten on TspRK (ribokinase from Thermus sp. 2.9)

OC1OC[C@@H](O)[C@@H](O)[C@H]1O (stereo partly drawn) [D-ribose]
Ki, μM [1]: 1,700 ± 400 μM

B1: TspRK (ribokinase from Thermus sp. 2.9) (Thermus sp. 2.9) (protein)
chain: MILVVGSLNMDLVLRVKRLPRPGETVLGEDYQTHPGGKGANQAVAIARLGGKVRMLGRVGEDPFGQALKSGLAQEGVDVAWVLETPGPSGTAFILVDPEGQNQIAVAPGANARLVPEDLPATAFQGVGVVLLQLEIPLETVVRAAALGRKAGARILLNAAPAHALPSEILQSVDLLLVNEVEAAQLTEASPPRTPEEALALARQLRGRAPQAQVVLTLGAQGAVWSGTEESHFPAFPVRAVDTTAAGDAFAGALALGLAEGQNMRAALRFANAAGALATTRPGAQPSLPFRDEVEALLFGR
notes: full-length, six-histidine tag (pET-23d+, NcoI/XhoI), codon-optimized synthetic gene; E. coli host
Km [2]: 75 ± 11 µM | Vmax [2]: 13 µM/min/mg | kcat [2]: 6.8 ± 0.7 s⁻¹ | kcat/Km [2]: 91000 M⁻¹ s⁻¹
